Laboratory results: PMC1635325 (Nucleic Acids Research, 2006)

B1: FLAG-GidA (natural protein, E. coli, UniProt P0A6U3 1-629, looked up)
chain: MFYPDPFDVIIIGGGHAGTEAAMAAARMGQQTLLLTHNIDTLGQMSCNPAIGGIGKGHLVKEVDALGGLMAKAIDQAGIQFRILNASKGPAVRATRAQADRVLYRQAVRTALENQPNLMIFQQAVEDLIVENDRVVGAVTQMGLKFRAKAVVLTVGTFLDGKIHIGLDNYSGGRAGDPPSIPLSRRLRELPLRVGRLKTGTPPRIDARTIDFSVLAQQHGDNPMPVFSFMGNASQHPQQVPCYITHTNEKTHDVIRSNLDRSPMYAGVIEGVGPRYCPSIEDKVMRFADRNQHQIFLEPEGLTSNEIYPNGISTSLPFDVQMQIVRSMQGMENAKIVRPGYAIEYDFFDPRDLKPTLESKFIQGLFFAGQINGTTGYEEAAAQGLLAGLNAARLSADKEGWAPARSQAYLGVLVDDLCTLGTKEPYRMFTSRAEYRLMLREDNADLRLTEIGRELGLVDDERWARFNEKLENIERERQRLKSTWVTPSAEAAAEVNAHLTAPLSREASGEDLLRRPEMTYEKLTTLTPFAPALTDEQAAEQVEIQVKYEGYIARQQDEIEKQLRNENTLLPATLDYRQVSGLSNEVIAKLNDHKPASIGQASRISGVTPAAISILLVWLKKQGMLRRSA

What was measured:
[1] = molecular target: the molecule itself; test: SEC
[2] = molecular target: B1; test: native gel or EMSA

B1
stoichiometry N [1]: 2

B2: recombinant MnmE (rMnmE, 53 kDa) (natural protein, E. coli, UniProt P25522 1-454, looked up)
chain: MSDNDTIVAQATPPGRGGVGILRISGFKAREVAETVLGKLPKPRYADYLPFKDADGSVLDQGIALWFPGPNSFTGEDVLELQGHGGPVILDLLLKRILTIPGLRIARPGEFSERAFLNDKLDLAQAEAIADLIDASSEQAARSALNSLQGAFSARVNHLVEALTHLRIYVEAAIDFPDEEIDFLSDGKIEAQLNDVIADLDAVRAEARQGSLLREGMKVVIAGRPNAGKSSLLNALAGREAAIVTDIAGTTRDVLREHIHIDGMPLHIIDTAGLREASDEVERIGIERAWQEIEQADRVLFMVDGTTTDAVDPAEIWPEFIARLPAKLPITVVRNKADITGETLGMSEVNGHALIRLSARTGEGVDVLRNHLKQSMGFDTNMEGGFLARRRHLQALEQAAEHLQQGKAQLLGAWAGELLAEELRLAQQNLSEITGEFTSDDLLGRIFSSFCIGK
stoichiometry N [2]: 1 MnmE per GidA (α2β2, 2:2)
